The text below walks through data of the DeepSol protein solubility set.

The data set is described as follows: soluble on expression in E. coli; label from the status in PepcDB or PDB records.
Regarding “MSLEELPRFFTQNGRHALLVDGAPYTILAAQLHNSSAWPAVLPPALDQVVALHANTVEAPVYWEQFEPAPGRFDTTNVDALIAGARKRGLRVALLWFGSWKNGQMHYVPEWIKRDEATYPRMRDANGEPVDVLSPHVAANVQADARAFTALMQHLRKVDGDRHTVIVVQVENEPGAIGTVRDHGPAGEAAFAQPVPAGIAAALGKPAGSWQQLFGAEAAEAFNAHATAAYIEQVAAAGKRVYPLPLYVNTWLRYKGKRYPGMDYPSGGATVNVFALWRAATPSIDFIGTDIYTSDYGEYTKVIGQYAREGHHHHHH”, the “soluble on expression in E. coli” value was “soluble”. In the case of “MTQSRRTLTERRADELRLAIAEVAFDMFVADGNTSATVERISQAVGIAPRTFYRHFEVKEDVVRPIFTKSSDVIVDALASTGEDVALLEGLVAAFLSQMDGTALTPEARTFLGLMLTTPAYKIRWLDVDPPLRQAVADLLDRRLGLSADPYIHLLAADLIVHAARDAFQHWVSSQEREPTEALLRRSFTLILKGLEHVIPRT” it was “not soluble”; in that of “MGSDKIHHHHHHEEAEAHQKPVEIQPETVKIARNSELTIVPLYTPYQKYLKASLKTDDPEMDKKYYAKYVLSYIDEIGEQEKFSTADLKGNFMLQSTSYEQELLNRIDTLMKQHDKIKEVITENYIAAHKILPKKKSTIFIVPSNSDFPTMSESLAGVTGAAYKDAFVLYLDQTFDKNVLAYTIAHEYHHLILHDTPDFKISSVLKSVIVEGKADAFADRIVKGVSPPWDVPMDNTTKKHVAGLVNNYETTFNDVTFGNEQKDIPRWSNYILGRDILNHYLKSNPNLSIKEWTYKDEHEILKDYKYQNILE”, “not soluble”; in that of “MSDICVIIAAYNAEATIAQAVTSALAEAEVAEVVVVDDASSDATAEAALAASDGSGRLIVERQAQNGGPSAARNRAVALSQAPRIAILDADDFFLPGRFARLDPDLDLAADNIVFVTPEHAARLDPTNLPAAPREVEMLDAERFALGNLAQGVHRGELGFLKPVMSRAFLTRHGLRYDERMWLGEDFDLYMRMLLLGARFGLTRAVGYAAVQRGASLSGRHRTADLAALEACCRAHLEMPASPATQEAMRRHLRQVQAKLLLRQFLDRKAEAGLGAALGFALAPPARFLPIAKGVARDKIAALRPPAPPRAERFLLPVLEHHHHHH”, “not soluble”. The entry for “MHIEEKTTQLQDQQQVSITIYNENLALVRDLRHVPLEKGINKLAWCDVSAQIRPETALLRTPEKTSSIRMVEQNFDFDLLTPEKLLEKYLGRSVNVIYVNPATGAETVEAAIVLSISGGVVLKFKDRIETGTPGRIAFPDVPGSLHDHPTLSLVLDGATPGKHELELSYLTSGLSWQADYVARLDANDGRLDLSGLVTLANHSGIAYPDAHLQLVSGEVNQVTPEPPQARKMMAMVADAAEYQAVREESLSEYHLYSLPVPTTLAENQSKQITLMSVTDIPVSQEFLLRGTNAYYFSRYSNLDDKLKPVVLIQFKNEGEGLGVPLPRGTIRVYQNDSRDNLQFLGEDHIDHTAKNEEVRVKLGKATDITAMRTQTDFQQLDTPSRRFTETATDITAMRTQTDFQQLDTPSRRFTETAHQIEIHNARQEAVTIRVQEPIPGDWMMISESQPHTKSSANLVEWLVKVPTNQKTILSYRVRIKHLEHHHHHH” is “not soluble”. “MSLRVKTMVFTPFISMVGVTGSMGPFFCEFTLNGDLLPINYPATYTHELAHLLGISSEAEANFYAYQVCTRSQIKGIRFSGYFSILNHVLGNARRLLSEKEYADIINRIRPEIIELAKKNQEYWMAKYSPLIGDVQNWIYDLYLKGNKIESGRKNYSEVIGLLISYQVWKAKTASDEGHHHHHH”: the “soluble on expression in E. coli” value is given as “not soluble”. In the case of “MAHHHHHHMMSQSLNALRSGTACFPTTIAQQRRWITRLYTSYYPGVLYPNQLVQHKQRLPPGVSLSTALKARTQTRQEQSVAGREVPEENETRGVSWTDASSTDVMHTGNARRQEKVSVATGRSYVPLGEVAKLELQGDYCMEGGLFQEALERYGVVAKAYSIAYPENHSQRIGILLKLASAFRHVGRLDSSKVNIENALKMLDASSRPSLELICEALLELGLTREAKSMKNEGAEAYEEAVEVLNLFHNWGESHRMLRLLPRLGRRFNLNFEEKFVYFSPFDYDRTFAIADQCMERAEKVYRETGDSNGIIRVLQCRKEMIDKKFFNLRDFAGRIHTMRGHWMRRAQHLTNAPTPDELLRYTPTIHQVYRDFKYELTAPIGREKEVMPGVNRVVLDMGNPYRRRGRLSNKMLRDADHNFANYVRREEYNA” it was “not soluble”; in that of “MGSDKIHHHHHHMENALLVGLSRQVVLERQMDVVANNLANLNTNGFKAERSVFQEFLNTGAHEDNFARPDRRVSFVQDRATYHDLSTGALQETKNPLDVAIDGKGFLVVQTPQGERFTRDGSLTINAQGQLVNGSGFPVLGTGGPIVIQPTDKELSISPDGRVSVVEGTSIIDSLRGKLRVVTFDRPQSLIKQGGNLFAATSDQGTPDTKSMVRQGYVEKSNVNSVLEMTRMIDVTRTYTQISAMLQQESELRKTAIEKLAEVPA”, “not soluble”. As to “MRIIEQDPWLRPYESVIESRLKYARKRETDLTGGRSGGLSDFANGHLYYGLHQDGDSWVIREFAPEATAVYLIGELSRWRRLPQFRFAPVDEAGSWELRLSCRLLPHGSRYRLFFEWPGGEGERIPAWCNRVEQDPETYLFYAQVWVPDTPYEMKHPHPNR”, the “soluble on expression in E. coli” value is given as “not soluble”. The entry for “MKFQCSSCGLRMDSLHFKQEGLMNPKLTSICDICRTRNLNPEEYSNNAVSTFAQSLLYTFVGADKKQDQLNFIVKNKKARKKYEAFLQDYDGNEIARQQIKRSDFNLAVIKSEDGQNDYVPNQDITFEQNLKKMGLEINFQLNEVDFIDRERIRAKYKYRCQYCGRRGHSVDHKDPVSLSHNNSLDNLTLACAECNRIKSDMPYKLFIQLNDQISDINKKLVKYENALGTLREEFEHRRRYLAAQVHLKGIINDPELNEIRKQNKSLQDAIDSLQSDYDDLRQIRKTYFDTGWKLARIKENNDIILEHHHHHH” is “not soluble”. As for “MGSDKIHHHHHHMEFHEIDRMAKKLGADIFGVADLDLLREYETFPENLLDSFDFGISIGVKLPDPLFDMLPDSRNLYSRYYVVANDMLDRIAFEISRAIESEGYEALPIPASKVLSDLHWRSYVSHKAIARAAGVGWVGRNLLLITPQFGPRVRLASVLTDMPLKAGKPARNRCGVCRECIDSCITQALRYSEFDDYPERDEVFEVDKCAAKLKEFASNPDIGTMVCGICIKVCPWGKLGNKTKGN”, the “soluble on expression in E. coli” value is listed as “not soluble”. The entry for “MRETHLRSILHTIPDAMIVIDGHGIIQLFSTAAERLFGWSELEAIGQNVNILMPEPDRSRHDSYISRYRTTSDPHIIGIGRIVTGKRRDGTTFPMHLSIGEMQSGGEPYFTGFVRDLTEHQQTQARLQELQ” is “soluble”; for “MANSHVNTLNPGDPFRDWLVEEVVANRIRDKKCCVNVFKYNSSHTVCRYQFKGEHFSVMAKFFAEPTGKLKAYNPYKGMMNEYRNLKKAASIINVAKPLAVRKDFNCVLVTEHIPGKSLGWYLKREEDLYGRLSAVAHMLRNLHDNTKSSYNKENEFRNFHDVLDHLKLDYGTRETFNKLLGEWWYSSLLDRDHGCMVHRDVTPSNYIFCKEKPYAIDFESSWFEAHPIRDLGVLTAELKNEFELHKGGGWKAEPYIGNFLWEYSRGEKDFYSITGILPFFMSIGLLRSARLHQGDYRNYLINEARECLGAIYRGNLEHHHHHH” it is “not soluble”; for “MSDWNPSLYLHFAAERSRPAVELLARVPLENVDYVADLGCGPGNSTALLHQRWPAARITGIDSSPAMIAEARSALPDCQFVEADIRNWQPEQALDLIFANASLQWLPDHYELFPHLVSLLNPQGVLAVQMPDNWLEPTHVLMREVAWEQNYPDRGRESLAGVHAYYDILSEAGCEVDIWRTTYYHQMPSHQAIIDWVTATGLRPWLQDLTESEQQLFLTRYHQMLKEQYPLQENGQILLAFPRLFIVARRTE” it is “soluble”. In the case of “MELSADYLREKLRQDLEAEHVEVEDTTLNRCATSFRVLVVSAKFEGKPLLQRHRLVNECLAEELPHIHAFEQKTLTPEQWTRQRRE” it was “soluble”; in that of “MDAAKDLRMTQLLQDPHSVREEREKVLEVAIGREVRAFRKQQGITVAELSKLTDLSIGMLSKIENGNTSPSLTTLQTLANALSVPLTAFFKGYEEKREAIHTKAGQGLEIERAGTRAGHQYSLLGHIGSNSSGVIVEPYLITLSTESDTFKTFQHDGIEMIYMLEGKVDYLHGSEIYPLEPGDTLFFDADAPHGPERLVELPTRYLSVICYPQQKKG”, “not soluble”. In the case of “MDDPKQPTWNVSPSLRRHARELRKKSTEAERLMWGELRDKRLNGFSFKRQVPIGPYIADFACHAKKLVVELDGGQHFSDDGERSDAARTAAIEARGFRVIRFSNHEVMTNRAGVLQSIADVLAARVLTPTLSRKRERERAKRAAKPRSDAGAANDQGDE” it was “not soluble”. Regarding “MSLSETLLEKNWKFSKGDFPEAAQTDYNDTKWESVVIPHDWAIFGPFDMNNDLQNVAVTQNFEKKASLKTGRTGGLPYVGTGWYRTSFDVPADKEVTLLFDGAMSEARVYVNGQEACFWPFGYNSFHCNVTPFLNKDGKNNTLAVRLENRPQSSRWYPGAGLYRNVHLIVTEKVHIPVWGTQITTPHVSDEFAAVRLQTKIENAGEKTEIRIETEILSPDGKVVTRKENKGRINHGQPFEQNFIVNAPQLWSPESPALYKAVSKVYADNQLVDTYSTRFGIRSIEYIADKGFYLNGKHRKFQGVCNHHDLGPLGAAINVAALRHQLTLLKDMGCDAIRTSHNMPAPELVELCDEMGFMMMIEPFDEWDIAKCENGYHRYFNEWAERDMVNMLHNYRNNPCVVMWSIGNEVPTQCSPVGYKVAKFLQDICHREDPTRPVTCGMDQVTCVLANGFAAMIDIPGLNYRANRYQEAYDKLPQNLILGSETASTVSSRGVYKFPVKDKKSAQYDDHQCSSYDVEACSWSNIPDEDFALADDHHWTIGQFVWTGFDYLGEPSPYDTDAWPNHSSMFGIIDLASLPKDRYYLYRSIWNKEAETLHILPHWTWPGREGEVTPVFVYTNYPAAELFINGKSYGKQSKNNSSLKSRYRLMWMDAIYEPGEVKVVAYDKDGKAVAEKSVRTASKPHHIELVSNRNELTADGKDLAYVTVKVVDKDGNLCPADSRLINFSVKGAGKYRAGANGDPTSLDLFHLPKMHAFNGMLTAIVQTNETAGEIILTAKAGGVKAGSIRLLTKEGHHHHHH”, the “soluble on expression in E. coli” value is listed as “soluble”.

Take “GMSNQKHIDKIQAVIKDVKFAMISTSNKKGDIHAWPMTTSEVNLDNKEIWFIGDKTSDVVKDIQDDARIGLTYATQDEKNYVSISGDAELPTDKAKLDELWSPVYSAFFANGKEDANIQLIKVVPHGVECWLSG”: the “soluble on expression in E. coli” value was “soluble”.

On to “MAHHHHHHMLRRTARRAMGNSRFSGSKERDRIEQERRRRLLYDAAGNLQLGGLLLMMYDDFKKPAAIGLGMVAFLYGYNRLVVRLSREEEAEGLQLDAKSEAVARQTGKLKADRYLVKPNRQIDDPDFLNIPAFGGRGVSSSKLLSDDSVSGGALHSERKRS”, for which the “soluble on expression in E. coli” value is listed as “not soluble”. “MGSDKIHHHHHHMDIKVITRHAPSNYGSLLQSIATITTLERLGHKCEIIDYIRDDEHGLSAVKTNLNNKQRWSGNSLKKLAYIVLRYPEEKKAELNFREMRRKYLKLTQLCRTHDDLKRLDADIFMTGSDQVWGPTLNGHYDEAYFLSFVKDKRKIAYAASLGRTDFTAKILSEYKKLLSSYSGIAVRENTAVGLLRQMDIECAGQVLDPTLLLTGDEWSRMIKKDMGGKYVLVYQLHNNPALSKYAVRFAEHVGLPLYRVSPTFHQIRRGGKFIYLPDLPDFLSYIKNSTYFITDSFHGTAFALNFNRQFIEILPNNKTGNRNQSILQLTRLQDRIVTDYADCSISERMIDYERVNDILRKERIRSLGILKQLLRQ”: the “soluble on expression in E. coli” value was “not soluble”.
